Assays:
Assay in all cases: negative-stain EM
[1] = molecular target: H2/1 GCN4 (SG57 head, PR8 stalk, GCN4-trimerized) (influenza A virus A/Puerto Rico/8/34/Mount Sinai(H1N1) | influenza A virus A/Singapore/1/1957(H2N2))
[2] = molecular target: H1 GCN4 (NL09 HA, GCN4-trimerized) (influenza A virus A/Netherlands/602/2009(H1N1))
[3] = molecular target: H5/1 GCN4 (IN05 head, PR8 stalk, GCN4-trimerized) (influenza A virus A/Puerto Rico/8/34/Mount Sinai(H1N1) | influenza A virus A/Indonesia/5/2005(H5N1))
[4] = molecular target: H1/1 GCN4 (NL09 head, PR8 stalk, GCN4-trimerized) (influenza A virus A/Puerto Rico/8/34/Mount Sinai(H1N1) | influenza A virus A/Netherlands/602/2009(H1N1))

| Substance | stoichiometry N (Fabs per trimer) [1] | stoichiometry N (Fabs per trimer) [2] | stoichiometry N (Fabs per trimer) [3] | stoichiometry N (Fabs per trimer) [4] | stoichiometry N [4] |
| --- | --- | --- | --- | --- | --- |
| CR9114 Fab | 3 | 3 | 3 | 3 |  |
| H1/1 GCN4 (NL09 head, PR8 stalk, GCN4-trimerized) (domain or fragment) |  |  |  |  | 3 |
